Test results: patent US20220389118A1 (Chugai, published 2022)
Positions count from the first letter of the chain named. Numbers in names are those of the source.

T1: human FcγRIIa type R extracellular domain with C-terminal His tag (human, UniProt P12318 34-217)
T1 construct: extracellular domain; also called FcγRIIaR; FcγRIIa R
T1 sequence (looked up): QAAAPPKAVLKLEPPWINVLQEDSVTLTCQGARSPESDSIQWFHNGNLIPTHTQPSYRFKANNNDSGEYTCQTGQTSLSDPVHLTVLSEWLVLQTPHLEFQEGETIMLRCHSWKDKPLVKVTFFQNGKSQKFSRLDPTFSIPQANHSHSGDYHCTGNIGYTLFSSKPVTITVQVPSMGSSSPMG

T2: human FcγRIIa type R (allotype R131) extracellular domain with C-terminal His tag (human, UniProt P12318 34-217)
T2 construct: extracellular domain; also called FcγRIIaR; FcγRIIa R type; not shown: His tag at the C terminus
T2 sequence (looked up): T1 sequence (looked up)

T3: human FcγRIIb extracellular domain with C-terminal His tag (human, UniProt P31994 43-217)
T3 construct: extracellular domain; not shown: His tag at the C terminus
T3 sequence (looked up): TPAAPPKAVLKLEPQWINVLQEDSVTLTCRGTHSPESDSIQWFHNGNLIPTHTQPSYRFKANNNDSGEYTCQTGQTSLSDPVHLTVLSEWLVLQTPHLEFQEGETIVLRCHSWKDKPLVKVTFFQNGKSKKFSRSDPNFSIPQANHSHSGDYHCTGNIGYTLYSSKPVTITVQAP

T4: human FcγRIIa type R extracellular domain with C-terminal His tag (human, UniProt P12318 34-217)
T4 construct: extracellular domain; also called FcγRIIaR; FcgRIIaR
T4 sequence (looked up): T1 sequence (looked up)

T5: human FcγRIIb extracellular domain with C-terminal His tag (human, UniProt P31994 43-217)
T5 construct: extracellular domain; also called FcgRIIb
T5 sequence (looked up): T3 sequence (looked up)

B1: IL6R-PD094/IL6R-L (antibody, human IgG1, kappa)
heavy: QVQLQESGPGLVKPSETLSLTCAVSGHSISHDHAWSWVRQPPGEGLEWIGFISYSGITNYNPSLQGRVTISRDNSKNTLYLQMNSLRAEDTAVYYCARSLARTTAMDYWGEGTLVTVSSASTKGPSVFPLAPSSKSTSGGTAALGCLVKDYFPEPVTVSWNSGALTSGVHTFPAVLQSSGLYSLSSVVTVPSSSLGTQTYICNVNHKPSNTKVDKKVEPKSCDKTHTCPPCPAPELLGWDSVFLFPPKPKDTLYISRTPEVTCVVVDVSHEDPEVKFNWYVDGVEVHNAKTKPREEQYNSTYRVVSVLTVLHQDWLNGKEYKCKVSNKALPAPIEKTISKAKGQPREPQVYTLPPSRDELTKNQVSLTCLVKGFYPSDIAVEWESNGQPENNYKTTPPVLDSDGSFFLYSKLTVDKSRWQQGNVFSCSVMHEALHYHYTQKSLSLSP
light: not shown
notes: also called P238D/G237W; G237W/P238D; copies: 2 + 2
B2: IL6R-PD082/IL6R-L (antibody, human IgG1, kappa)
heavy: B1 heavy with W239F
light: not shown
notes: also called P238D/G237F; G237F/P238D; copies: 2 + 2
B3: IL6R-PD043/IL6R-L (antibody, human IgG1, kappa)
heavy: B1 heavy with L236Y, W239G
light: not shown
notes: also called P238D/L234Y; L234Y/P238D; copies: 2 + 2
B4: IL6R-PD086/IL6R-L (antibody, human IgG1, kappa)
heavy: B1 heavy with W239L
light: not shown
notes: also called P238D/G237L; G237L/P238D; copies: 2 + 2
B5: IL6R-PD095/IL6R-L (antibody, human IgG1, kappa)
heavy: B1 heavy with W239Y
light: not shown
notes: also called P238D/G237Y; G237Y/P238D; copies: 2 + 2
B6: IL6R-PD081/IL6R-L (antibody, human IgG1, kappa)
heavy: B1 heavy with W239E
light: not shown
notes: also called P238D/G237E; G237E/P238D; copies: 2 + 2
B7: IL6R-PD097/IL6R-L (antibody, human IgG1, kappa)
heavy: B1 heavy with W239G, S241D
light: not shown
notes: also called P238D/S239D; copies: 2 + 2
B8: IL6R-BP187/IL6R-L (antibody, human IgG1, kappa)
heavy: B1 heavy with L236Y, W239G, Y254M, P273G, K328A, A332K, Y436N, K441E
light: not shown
notes: copies: 2 + 2
B9: IL6R-BP203/IL6R-L (antibody, human IgG1, kappa)
heavy: B1 heavy with W239D, Y254M, P273G, A332R, Y436N, K441E
light: not shown
notes: copies: 2 + 2
B10: IL6R-BP192/IL6R-L (antibody, human IgG1, kappa)
heavy: B1 heavy with E235D, W239G, Y254M, H270D, P273G, Y298D, A332K, Y436N, K441E
light: not shown
notes: copies: 2 + 2
B11: IL6R-BP191/IL6R-L (antibody, human IgG1, kappa)
heavy: B1 heavy with E235D, W239G, Y254M, H270D, P273G, K328A, A332K, Y436N, K441E
light: not shown
notes: copies: 2 + 2
B12: IL6R-BP189/IL6R-L (antibody, human IgG1, kappa)
heavy: B1 heavy with W239D, Y254M, H270D, P273G, K328A, A332K, Y436N, K441E
light: not shown
notes: copies: 2 + 2
B13: IL6R-BP542/IL6R-L (antibody, human IgG1, kappa)
heavy: B1 heavy with E235D, W239D, Y254M, H270D, P273G, Y298F, A332R, Y436N, K441E
light: not shown
notes: Y296F introduced into IL6R-BP230 (takes the place of Y296D); copies: 2 + 2
B14: Fv4-F1388 (antibody, human IgG1, kappa)
heavy: B1 heavy with W239G, D240P, Y254M, M430L, Y436S, Y438F
light: DIQMTQSPSSLSASVGDSVTITCQASTDISSHLNWYQQKPGKAPELLIYYGSHLLSGVPSRFSGSGSGTDFTFTISSLEAEDAATYYCGQGNRLPYTFGQGTKVEIERTVAAPSVFIFPPSDEQLKSGTASVVCLLNNFYPREAKVQWKVDNALQSGNSQESVTEQDSKDSTYSLSSTLTLSKADYEKHKVYACEVTHQGLSSPVTKSFNRGEC
notes: Variant of Fv4-LS; copies: 2 + 2
B15: Fv4-F1390 (antibody, human IgG1, kappa)
heavy: B1 heavy with W239G, D240P, Y254M, M430L, Y436S, Y438H
light: B14 light
notes: as for B14
B16: Fv4-F1382 (antibody, human IgG1, kappa)
heavy: B1 heavy with W239G, D240P, Y254M, S428K, M430L, Y436S
light: B14 light
notes: as for B14
B17: Fv4-F1385 (antibody, human IgG1, kappa)
heavy: B1 heavy with W239G, D240P, Y254M, S428Q, M430L, Y436S
light: B14 light
notes: as for B14
B18: Fv4-F1384 (antibody, human IgG1, kappa)
heavy: B1 heavy with W239G, D240P, Y254M, S428A, M430L, Y436S
light: B14 light
notes: as for B14
B19: Fv4-F1380 (antibody, human IgG1, kappa)
heavy: B1 heavy with W239G, D240P, Y254M, S428D, M430L, Y436S
light: B14 light
notes: as for B14
B20: Fv4-F1389 (antibody, human IgG1, kappa)
heavy: B1 heavy with W239G, D240P, Y254M, M430L, Y436S, Y438T
light: B14 light
notes: as for B14
B21: Fv4-F1383 (antibody, human IgG1, kappa)
heavy: B1 heavy with W239G, D240P, Y254M, S428R, M430L, Y436S
light: B14 light
notes: as for B14
B22: Fv4-F1381 (antibody, human IgG1, kappa)
heavy: B1 heavy with W239G, D240P, Y254M, S428E, M430L, Y436S
light: B14 light
notes: as for B14
B23: Fv4-F1386 (antibody, human IgG1, kappa)
heavy: B1 heavy with W239G, D240P, Y254M, S428Y, M430L, Y436S
light: B14 light
notes: as for B14
B24: Fv4-F1392 (antibody, human IgG1, kappa)
heavy: B1 heavy with W239G, D240P, Y254M, M430L, Y436S, Y438K
light: B14 light
notes: as for B14
B25: Fv4-F1391 (antibody, human IgG1, kappa)
heavy: B1 heavy with W239G, D240P, Y254M, M430L, Y436S, Y438N
light: B14 light
notes: as for B14
B26: IL6R-BP120/IL6R-L (antibody, human IgG1, kappa)
heavy: B1 heavy with W239G, Y254M, K328E, Y436N, K441E
light: not shown
notes: IgG1 type
B27: IL6R-BP116/IL6R-L (antibody, human IgG1, kappa)
heavy: B1 heavy with W239G, Y254M, K328T, Y436N, K441E
light: not shown
notes: IgG1 type
B28: IL6R-BP117/IL6R-L (antibody, human IgG1, kappa)
heavy: B1 heavy with W239G, Y254M, K328D, Y436N, K441E
light: not shown
notes: IgG1 type
B29: IL6R-BP911/IL6R-L (antibody, human IgG1, kappa)
heavy: B1 heavy with W239G, Y254M, A332K, Y436N, K441E
light: not shown
notes: IgG1 type
B30: IL6R-BP126/IL6R-L (antibody, human IgG1, kappa)
heavy: B1 heavy with W239G, Y254M, K328L, Y436N, K441E
light: not shown
notes: IgG1 type
B31: IL6R-BP118/IL6R-L (antibody, human IgG1, kappa)
heavy: B1 heavy with W239G, Y254M, K328S, Y436N, K441E
light: not shown
notes: IgG1 type

biological target: T6, human FcγRIIIa type V extracellular domain with C-terminal His tag (human, UniProt P08637 17-208); assay: SPR, Ref. Ex. 25
T6 construct: extracellular domain; also called FcγRIIIaV; FcγRIIIa V type
T6 sequence (P08637 17-208 F176V): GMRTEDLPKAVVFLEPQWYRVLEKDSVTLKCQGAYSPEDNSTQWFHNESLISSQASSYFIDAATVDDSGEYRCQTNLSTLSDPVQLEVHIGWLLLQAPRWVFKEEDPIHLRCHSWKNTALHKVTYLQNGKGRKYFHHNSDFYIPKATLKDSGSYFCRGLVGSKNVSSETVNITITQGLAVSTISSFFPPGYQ

Row | Kd | Binder
1 | 38000 nM | B1
2 | 43000 nM | B2
3 | 45000 nM | B3
4 | 41000 nM | B4
5 | 42000 nM | B5
6 | 41000 nM | B6
7 | 17000 nM | B7

biological target: T1, human FcγRIIa type R extracellular …; assay: SPR, Ref. Ex. 25

Row | Kd | Binder
8 | 7200 nM | B1
9 | 14000 nM | B2
10 | 26000 nM | B3
11 | 7900 nM | B5
12 | 38000 nM | B6

biological target: T7, human FcγRIIIa type V (allotype V158) extracellular domain with C-terminal His tag (human, UniProt P08637 17-208); assay: SPR (Biacore), antibody captured, FcγR analyte
T7 construct: extracellular domain; also called FcγRIIIaV; FcγRIIIa V type; not shown: His tag at the C terminus
T7 sequence (P08637 17-208 F176V): as above

Row | Kd | Binder
13 | 56000 nM | B8
14 | 72000 nM | B9

biological target: T2, human FcγRIIa type R (allotype R131) …; assay: SPR (Biacore), antibody captured, FcγR analyte

Row | Kd | Binder
15 | 2800 nM | B8
16 | 990 nM | B9
17 | 2600 nM | B10
18 | 3000 nM | B11

biological target: T8, human FcγRIa extracellular domain with C-terminal His tag (human, UniProt P12314 16-292); assay: SPR (Biacore), antibody captured, FcγR analyte
T8 construct: not shown: His tag at the C terminus
T8 sequence (P12314 16-292): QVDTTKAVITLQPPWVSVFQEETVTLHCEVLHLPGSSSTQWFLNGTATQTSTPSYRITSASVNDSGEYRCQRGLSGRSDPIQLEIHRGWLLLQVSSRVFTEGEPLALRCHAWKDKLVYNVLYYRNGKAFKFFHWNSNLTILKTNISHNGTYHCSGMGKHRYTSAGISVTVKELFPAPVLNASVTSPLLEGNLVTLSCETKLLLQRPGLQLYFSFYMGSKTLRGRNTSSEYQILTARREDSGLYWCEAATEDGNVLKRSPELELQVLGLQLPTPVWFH

Row | Kd | Binder
19 | 25 nM | B8
20 | 180 nM | B9
21 | 6.6 nM | B10
22 | 42 nM | B12
23 | 4 nM | B11

biological target: T3, human FcγRIIb extracellular domain with …; assay: SPR (Biacore), antibody captured, FcγR analyte

Row | Kd | Binder
24 | 20 nM | B13

biological target: T9, human FcRn (human, UniProt P55899 24-297; P61769 21-119); assay: binding to FcRn at pH 6.0; method not stated
T9 construct: the construct is not described

Row | Kd | Binder
25 | 80 nM | B14
26 | 400 nM | B15
27 | 130 nM | B16
28 | 77 nM | B17
29 | 86 nM | B18
30 | 73 nM | B19
31 | 68 nM | B20
32 | 160 nM | B21
33 | 86 nM | B22
34 | 160 nM | B23
35 | 270 nM | B24
36 | 420 nM | B25

biological target: T4, human FcγRIIa type R extracellular …; assay: SPR (Biacore), antibody captured, FcγR as analyte

Row | Kd | Binder
37 | 9600 nM | B26
38 | 15000 nM | B27
39 | 9200 nM | B28
40 | 16000 nM | B29
41 | 11000 nM | B30
42 | 15000 nM | B31

biological target: T5, human FcγRIIb extracellular domain with …; assay: SPR (Biacore), antibody captured, FcγR as analyte

Row | KD(IIb) of parent polypeptide/KD(IIb) of altered polypeptide | Kd | Binder
43 | 3 fold vs IL6R-B3/IL6R-L | 1000 nM | B26
44 | 2.8 fold vs IL6R-B3/IL6R-L |  | B27
45 | 3.9 fold vs IL6R-B3/IL6R-L | 800 nM | B28
46 | 3.5 fold vs IL6R-B3/IL6R-L |  | B29
47 | 2.2 fold vs IL6R-B3/IL6R-L |  | B30
48 | 2.7 fold vs IL6R-B3/IL6R-L |  | B31
